Test results: the nanobody polyreactivity screen of Harvey et al. (2022)

Assay: yeast display, Sf9 membrane polyspecificity reagent, FACS + sequencing; frameworks hold sequencing errors
Summary of the method: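 In a synthetic yeast display library (Saccharomyces cerevisiae BJ5465), nanobody expression was induced with galactose for 36–48 hours. FACS gates were set low and high (top ~1%) using anti-HA fluorescence for expression and streptavidin fluorescence for binding of the Sf9 membrane reagent. Each polyreactivity label is drawn from the gate of origin.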

Sequence: QVQLVESGGGLVQAGGSLRLSCAASGSIFTLNAMGWYRQAPGKERELVAAISRSGGSTYYADSVKGRFTISRDNAKNTVYLQLNSLKPEDTAVYYCAVYVTRDSGWWLYDYWGQGTQVTVSS
- polyreactivity (PSR sort gate): high polyreactivity

Sequence: EVQLVESGGGLVQAGGSLRLSFAASGFTFRYYAMGWYRQAPGKERELVASITGGGRTYYADSVKGRFTISRDNAKNTVYLQMNSLKPEDTAVYYCATLLAYRLGSGYDSWGQGTQVTVSS
- polyreactivity (PSR sort gate): high polyreactivity

Sequence: QVQLVESGGGLVQAGGSLRLSCAASRSIFSYNAMGWYRQAPGKGREFVAAITSSGTRKYYADSVQGRFTISRDNAMNTVYLQLNSLKPEDTAVYYCAADLRYDYWGQGTQVPVSS
- polyreactivity (PSR sort gate): high polyreactivity

Sequence: QVQLVESGGGLVQAGGSLRLSCAASGGIFSYAMGWYRQAPGKERELVAAISSGGSTYYADSVKGRFTISRDNAKNTVYLQMNSLKPEDTAVYYCAADGNGVDYDYWGQGTQVTVSS
- polyreactivity (PSR sort gate): low polyreactivity

Sequence: QVQLVESGGGLVQAGGSLRLSCAASGSTFYLYAMGWYRQAPGKERELVAGITGSGGRTYYADSVKGRFTISRDNAKNTVYLQLNSLKPEDTAVYYCNKRRASWSPAGGTYNYWGQGSQVTVSS
- polyreactivity (PSR sort gate): low polyreactivity

Sequence: QVQLVDSGGGLVQAGGSLRLSCSASGYNFIGYAMGWYRQAPGKERELVATITSGGSTNYADSVKGRFTISRDNAKNTVYLQMNSLNPEDTAVYYCAAGRGRYFYSWRYLYAIFDYWGQGTQVTVSS
- polyreactivity (PSR sort gate): low polyreactivity

Sequence: QVQLVESGGALVQAAGSLRLICAASVIISGCNGMGWYRQAPGKERELVASISDSGSSTYYADSVKGRFTISRDNAKNTVYLQMNSLKPEDTAVYYCATDLLASRYGYWGQGTQVTVSS
- polyreactivity (PSR sort gate): low polyreactivity

Sequence: QVQLVESGGGLVQAGGSLRLSCAASGLTFVTYVMGWYRPAPGKERELVAAISYSGGSTYYADSVKGRFTISRDNAKNTVYLQMNSLKPEDTAVYYCAAEWYGYQEDDYWGQGTQVTVSS
- polyreactivity (PSR sort gate): low polyreactivity

Sequence: QVQLVESGGGLVQAGGSLRLSCAASGSTFSYYAMGWYRKAPGKERELVAAITIGGRTNYADSVKGRFTISRDNAKNTVYFQMNSLKPEDTAVYYCAASRVRSLRSYVWDLLLMDSWGQGTQVTVSS
- polyreactivity (PSR sort gate): high polyreactivity

Sequence: QVKLVESGGGLVQAGGSLRLSCAASGFTYFINGMGWYRQAPGKERQLVAAIRSSGASTYYADSVKGRFTISRDNAKNTVYLQMNSLKPEDTAVYYCNARSSVCNSGADYDYWGQGTQVTVSS
- polyreactivity (PSR sort gate): low polyreactivity

Sequence: QVQLVESGGGLVQAGGSLRLSCAASGRTFVPDVMGWYRQAPGKERELVAAITSGGSTYYADSVKGRFTISRDNAKNTVYLQMNSLKPEDTAVYYCAKRTSWKYGYWGQGTQVTVSS
- polyreactivity (PSR sort gate): high polyreactivity

Sequence: QVQLVESGGGLVQAGGSLRLSCAASGRIFAPYAMGWYRQAPGKERELVAAITSGGSTNYADSVKGRFTISRDNAKNTVYVQMNSLKPEDTAVYYCAAEASYNYGKYVVTYDYWGQGTQVTVSS
- polyreactivity (PSR sort gate): high polyreactivity

Sequence: QVQLVESGGGLVQAGGSLRLSCAASGRIFYWYVMGWYRQAPGKERELVATIRYSGGNTYYADSVKGRFTISRDNAKNTVYLQMNSLKPEETEVYYCAAGSLYWGRSPTRGGQGGYWGQGTQVTVSS
- polyreactivity (PSR sort gate): high polyreactivity

Sequence: QVQLVESGGGLLQAGGSLRLSCAASGFIFIQYAMGWYRQAPGKEREFVAAITGRGSSTYYADSVKGRFTISRDNAKNTVYLQMNSLKPEDTAVFYCAADRDSYIFYYYWSYDYWGQGTQVTVSA
- polyreactivity (PSR sort gate): high polyreactivity

Sequence: QVQLVESGGGLVQAGGSLRLSCAASGSTFCRNAMGWYRQAPGKEREFVAVISISSGTTYADSVKGRFTISRDNAKNTVYLQMNSMKPEDTAVYYCAAAIGVYYIDYRYLGTVEYWGQGTQGTVSS
- polyreactivity (PSR sort gate): low polyreactivity

Sequence: QVQLVESGGGLVQAGGSLRLSCAASGRIFVHYVMGWYRQAPGKERELVAAITVSGGGTYYADSVKGRFTISRDNAKNTVYFQMNSLTPEDTAVYYCNAVPHPYDWGQGTQLTVSS
- polyreactivity (PSR sort gate): low polyreactivity

Sequence: QVQLVESGGGLVQAGGSLRLSCAASGRIFAIYAAIGWYRQAPGKERELVAAISSGDNTNYADSEKGRFTISRDNAKNTVYLQMNSLIPEDTAVYYCATDLVYYAAVTKFAEYDYWGQGTQVTVSS
- polyreactivity (PSR sort gate): low polyreactivity

Sequence: QVQLVESGGGLVQAGGSLRLSCAASGGIFRNYAMGWYRQAPGKERELVARISSAGSTNYADSVKGRFTNSRDNAKNTVYLLMNSLKPEDTAVYYCAKGWRSWAEEGHDYWGQGTQVTVSS
- polyreactivity (PSR sort gate): low polyreactivity

Sequence: HVQLGESGGGLVQAGGSLRLSCAASGFIFQRYAMGWDRQAPGKERELVAAITTSGGRTYYADSVKGRFTMSRDNAKKTVYLQMNSLKPEDTAVYYCAAEGSHNSEYWGQGTQVTVSS
- polyreactivity (PSR sort gate): high polyreactivity

Sequence: QVQLVESGGGLVQAGGSLRLSCAASGSIFQYNAMGWYRQEPGKERELVATITYIGGRTYYAYSVKGRFTISRDNAKNTVYLQMNSLKPEDTAVYYCAAEYYVISSPSFYEYDYWGQGTQVTVSS
- polyreactivity (PSR sort gate): low polyreactivity

Sequence: QVQLVESGGGLVQAGGSLRLSCAASGFTFRWYTMGWYRQAPGKERELVASINWSTGSTYYADSVKGRFTISRDNAKNTVYLQMNSLKPEDTAVYYCAATAWYNSYFGLDYWGQGTQVTVSS
- polyreactivity (PSR sort gate): high polyreactivity

Sequence: QVQLVESGGGLVQAGGSLRLSCAASGFIFGYYAMGWYRQAPGKERELVARITSSGGSTYYADSVKGRFTISRDNAKNTVYLQMNSLKPEDTAVYYCAKSPRAPRYIPYGYWGQGTQVTVSS
- polyreactivity (PSR sort gate): high polyreactivity

Sequence: QVQLVEAGGGLVQAGGSLRLSCAASGYTFGKNAMGWYRQAPGKERELVAAITYSGGSTYYADSVKGRFTISRDNAKNTVYLQMNSLKPEDTAVYYCAADNPSDVYDTWVYYWGQGTQVTVSS
- polyreactivity (PSR sort gate): high polyreactivity

Sequence: QVQLVESGGGLVQAGGSLRLSCAASGFIFPVNAMGWYRQAPGKERELVAGISRGGRTNYADSVKGRFTISRDNAKYSVYLQMNSLKPEDTAVYYCAAESYRAYKYDSWGQGTQVTVSS
- polyreactivity (PSR sort gate): low polyreactivity

Sequence: QVQLVESGGGLVQAGGTLRLSCAPSGYTFVYNAMGWYRQAPGKEREFVAAISWSGTSTRYADSVKGRFTISRDNAKNTVYLQMNSLKPEDTAVYYCAARRRSAQSGSYNHWGQGTQVTVST
- polyreactivity (PSR sort gate): high polyreactivity

Sequence: QVQLVESGGGLVQAGGSLRLSCAAYGITFVPNAMGWYRQAPGKERELVAAITSGDSTNYADSVKGRFTISRDNAKNTVYLQMNSLKPDDTAVYYCAADSWAQRPNQGRVSLHYYWGQCTQVTVSS
- polyreactivity (PSR sort gate): low polyreactivity

Sequence: QVQLVESGGGLVQAGGSLRLSCAASGSTFPIYAMGWYRQAPGKERELVAAITWRGGSRTYYADSVKGRFTISRDNAKNTVYLQMNSLKPEDTAVYYCAAEYQWPLYGYWGQGTQVTVSS
- polyreactivity (PSR sort gate): low polyreactivity

Sequence: QVQLVESGGGLVQAGGSLRLSCAASGITFTRNAMGWYRQAPGKERELVATISGSGGGTYYADSVKGRFTISRDNAKNTVYLQMNSLKPEDTAVYYCNARRWYYWQGTARYDYWGQGTQVTVSS
- polyreactivity (PSR sort gate): low polyreactivity

Sequence: QVQLVESGGCLVQAGGSLRLSCAASGSTFSRYAMGWYRQAPGKERELVAAISWGGNTYYADSVKGRFTISRDNAKNTVYLQMNSLKPEDTAGYYCNADYSSRGANYDYWGQGTQVTVSS
- polyreactivity (PSR sort gate): high polyreactivity

Sequence: QVQLVESGGGLVQAGGSLRLSCAASGFTFVKYAMGWYRQAPGKVRELVASISSGGSTYYADSVKGRFTISRDNAKNTVYLQMNSLKPEDTAVYYCNKSPGYGRYSRRYDSWGQGTQVTVSS
- polyreactivity (PSR sort gate): high polyreactivity

Sequence: QVQLVESWGGLVQAGGSHRLSCDASGRIFTRNAMGWYRQAHGKERELVAAISYDCGSTYYADSVKVRFTISRDNAKNTVYLQMNSLKPEDTAVYYCATDLYLHGYEYWGQGTQVTVSS
- polyreactivity (PSR sort gate): high polyreactivity

Sequence: QVHLVESGGGLVQAGGSLRLSCAASGRTFIRYTMGWYRQAPGKEREFVAAINTSGGRTYYADSVKGRFTISRDNAKNTVYLQMNSLKPEDTAVYYCAAGYSASRKVDYWGQGTQVTVSS
- polyreactivity (PSR sort gate): high polyreactivity

Sequence: QEQLVESGGGLVQAGGTLRLSSAASVNTISPNAMGWYRQPPGKERELVAAIDSRDGIRYYADSVKGRFTISRDNAKNTVYLQMNSLKPEDTAVYYCAPDEWYGESNYWGQGTQVTVSS
- polyreactivity (PSR sort gate): low polyreactivity

Sequence: QVQLVESGGGLVQAGGSLRLSCAASGRTFDPYAMGWYRQAPGKERELVAAITSSGGSTYYADSVKGRFTISRDNAKNTVYLQMNSLKPEDTAVYYCAAEQRDFIWWFYYWGQGTQVTVSS
- polyreactivity (PSR sort gate): high polyreactivity

Sequence: QDQLVESGGGLVQAGGSLRLSCAATGRIFERNAMGWYRQAPAKERELVARITSGGGTYYADSVKGRFTISRDNAKNTVYLQMNSLKPEDTAVYYCAVQYLYRKYRRYDYWGQGTQVTVSS
- polyreactivity (PSR sort gate): high polyreactivity

Sequence: QVQLVESGGGLVQAGGSLRLSCAASGYIFDLNPMGRYRQAPGKERELVAAISTGGGTYYADSVKGRFTISRDNAKNTVYLQMNSLKPEDTAVYYCAADWGYWYAEYDYWGQGTLVTVSS
- polyreactivity (PSR sort gate): low polyreactivity

Sequence: QVQLVESGGGLVQAGGSLRLSCAASGSTLGWYGMGWSRQAPGKERELVAAIDSGGNTYADSVKGRFTISRDNAKNTVYLQMNSLKPEDTAVYYCAVDGGEFSSYGYWGQGTQVTVSS
- polyreactivity (PSR sort gate): low polyreactivity

Sequence: QVQLVESGGGLVQAGGSLRLSCAASGITFAGYAMGWYRQAPGKERELVAAITRGGGITYYADSVKGRFTISRDNAKNTVYLQMNSLKPEDTPVDYCNAVVTSAAGYFPLLYDYWGQGTQVTVSS
- polyreactivity (PSR sort gate): high polyreactivity

Sequence: QVQLVESGGGLVQAGGSLRLSCAASGFTFSIYAMGWYRQAPGKERELVAAISGRGSSTYYADSVKGRFTISRDNAKNTVYLQMNSLKPEDTAVYYCKKFHHAYFSSVYSYAGGYWGQGTQVTVSS
- polyreactivity (PSR sort gate): high polyreactivity

Sequence: QVQLVESGGGLVQAGGSLRLSCAASGRTFQPYAMGWYRQAPRKERELVASISRSGGRTYYADSVKGRFTISRDNAKNTVYLQMNSLKPEDTAVYYCADDIPYTRSIKYYYWGQGTQVTVSS
- polyreactivity (PSR sort gate): high polyreactivity

Sequence: QVQLVESGGGLVQAGGSLRLICAASGIIYYYYAMGWYRQAPGKERELVAAINFSVGGTYYADSVKGSFTNSRDNAKNSVYLQMNSQKPEDTAVYYCAKDIVIPATYVEYDYWGQGTQVTVSS
- polyreactivity (PSR sort gate): low polyreactivity

Sequence: QVQLVESGGGLVQAGGSLRLSCAASGRTFSGYAMGWYRQAPGKERELVAAITSSGSSTYYADSVKGRFTISRDNAKNTVYLQMNSQKPEDTSVYYCAATPQAHSERYYYQRKYDYWGQGTQVTVSS
- polyreactivity (PSR sort gate): low polyreactivity

Sequence: QVQLVESGGGIVQAGGSLRLSCAASGITFPLYVMGWYRQAPGKERELVAAISASGGSTYADSVKGRFTISRDNAKNTVYLQMNSLKPEDTAVYYCNADVYVGYDYDYWGQGTQVTVSS
- polyreactivity (PSR sort gate): low polyreactivity
